Fewer inactive variants are shown than the library holds.
B1: TPR 5TU (parent)
chain: GGAUCUUCUCGAUCUAACAAAAAAGACAAAUCUGCCACAAAGCUUGAGAGCAUCUUCGGAUGCAGAGGCGGCAGCCUUCGGUGGCGCGAUAGCGCCAACGUUCUCAACUAUGACACGCAAAACGCGUGCUCCGUUGAAUGGAGUUUAUCAUG

Variants of: B1
Experiment: polymerase ribozyme fitness, log enrichment relative to wild type (log ratio); higher = more active; in vitro selection for triplet polymerase activity
Method in brief: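 Genotype fitness is the logarithm of its enrichment divided by wild-type enrichment, using inverse-variance-weighted averages of replicates. That logarithm is base 2. Enrichment was measured by Illumina sequencing of input and output libraries from one triplicate in vitro selection round, with frozen incubation at −7 °C, on PCR-built, transcribed mutant libraries of each subunit of a heterodimeric triplet polymerase ribozyme, retaining genotypes with ≥10 input reads and ≥1 read per output.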

Polymerase ribozyme fitness (log ratio), -3.87:
GGAUCUUCUCGAUCUAACAAAAAAGACAAAUCUGACACAAAGCUUGAGAGCAUCUUCGGAUGCAGAGGCGGCAGCCUUCGGUGGCGCGAUAGCGCCAACGCUCUCAACUAUGACACGCAAAACGCGUGCUCCGUUGAAUGGAGUUUAUCAUG

Polymerase ribozyme fitness (log ratio), -3.32:
GGAUCUUCUCGAUCUAACAAAAAAGACAAAUCUGACACAAAGCUUGAGAGCAUCUUCGGAUGCAGAGGCGGCAGCCUUCGGUGGCGCGAUAGCGCCAACGUUCUCAACUAUGACACGCAAAACGCGUGCUCCGUUGAAUGGAGUUAAUCAUG

Polymerase ribozyme fitness (log ratio), -3.92:
GGAUCUUCUCGAUCUAACAAAAAAGACAAAUCUGGCACAAAGCUUGAGAGCAUCUUCGGAUGCAGAGGCGGCAGCCUUCGGUGGCGCGAUAGCGCCAACGUUCUCAACUAUGACGCGCAAAACGCGUGCUCCGUUGAAUGGAGUUUAUCAUG

Polymerase ribozyme fitness (log ratio), -4.14:
GGAUCUUCUCGAUCUAACAAAAAAGACAAAUCUGGCACAAAGCUUGAGAGCAUCUUCGGAUGCAGAGGCGGCAGCCUUCGGUGGCGCGAUAGCGCCAACGUUCUUAACUAUGACACGCAAAACGCGUGAUCCGUUGAAUGGAGUUUAUCCUG

Polymerase ribozyme fitness (log ratio), -3.99:
GGAUCUUCUCGAUCUAACAAAAAAGACAAAUCUGGCACAAAGCUUGAGAGCAUCUUCGGAUGCAGAGGCGGCAGCUUUCGGUGGCGCGAUAGCGCCAACGUUCUCAACUAUGACACGCAAAACGCGUGCUCCGUUGAAUGGAGUUUAUCAUG
GGAUCUUCUCGAUCUAACAAAAAAGACAAAUCUGGCACAAAGCUUGAGAGCAUCUUCGGCUGCAGAGGCGGCAGCCUUCGGUGGCGCGAUAGCGCCAACGUUCUCAACUAUGACACGCAAAACGCGUGCUCCGUUGAAUGGAGUUUAUCAUG

Polymerase ribozyme fitness (log ratio), -3.66:
GGAUCUUCUCGAUCUAACAAAAAAGACAAAUCUGGCACAAAGCUUGAGAGCAUCUUCGGAUGCAGAGGCGGCAGCCUUCGGUGGCGCGAUAGCGCCAACGUUCUCAACUAUGACACGCAAAACGCGUGCUCCGUUGAAUGCAGUUUAUCAUG

Polymerase ribozyme fitness (log ratio), -4.18:
GGAUCUUCUCGAUCUAACAAAAAAGACAAAUCUGGCACAAAGCUUGAGAGCAUCUUCGGAUGCAGAGGCGGCAGCCUUCGGUGGCGUGAUAGCGCCAACGUUCUCAACUAUGACACGUAAAACGCGUGCUCCGUUGAAUGGAGUUUAUCAUG
GGAUCUUCUCGAUCUAACAAAAAAGACAAAUCUGGCACAAAGCUUGAGAGCAUCUUCGGAUGCAGAGCCGGCAGCCUUCGGUGGCGCGAUAGCGCCAACGUUCUCAACUAUGACACGCAAAACGAGUGCUCCGUUGAAUGGAGUUUAUCAUG

Polymerase ribozyme fitness (log ratio), -4.02:
GGAUCUUCUCGAUCUAACAAAAAAGACAAAUCUGGCACAAAGCUUGAGAGCAUCUUCGGAUGCAGAGGCGGCAGCCUUCGGUGGCGCGCUAGCGCGAACGUUCUCAACUAUGACACGCAAAACGCGUGCUCCGUUGAAUGGAGUUUAUCAUG

Polymerase ribozyme fitness (log ratio), -4.13:
GGAUCUUCUCGAUCUAACAAAAAAGACAAAUCUGGCACAAAGCUUGAGAGCAUCUUCGGAUGCAGAGGCGGCAGCAUUCGGUGGCGCGAUAGCGCCAACGUUCUCAACUAUGACACGCAAAACGCGUGCUCCGUUGAAUGGAGUUUAUCAUG

Polymerase ribozyme fitness (log ratio), -4.12:
GGAUCUUCUCGAUCUAACAAAAAAGACAAAUCUGGCACAAAACUUGAGAGCAUCUUCGGAUGCAGAGGCGGCAGCCUUCGGUGGCGCGAUAGCGCCAACGUUCUCAACUAUGACACGCAAAACGCGUGCGACGUUGAAUGGAGUUUAUCAUG

Polymerase ribozyme fitness (log ratio), ≤ -4.2:
GGAUCUUCUCGAUCUAACAAAAAAGACAAAUCUGGCACAAAGCUUGAGAGCAUCUUCGGAUGCAGAGGAGGCAGCAUUCGGUGGCGCGAUAGCGCCAACGUUCUCAACUAUGACACGGAAAACGCGCGCUCCGUUGAAUGGAGUUUAUCAUG
GGAUCUUCUCGAUCUAACAAAAAAGACAAAUCUGGCACAAAGCUUGAUAGCAUCUUCGGAUGCAGAGGCAGCAGCCUUCGGUGGCGCGAUACCGCGAACGUUCUCAACUAUGACACGCAAAACGCGUGCUCCGUUGAAUGGAGUUAAUCAUG
GGAUCUUCUCGAUCUAACAAAAAAGACAAAUCUGGCACAAAGCUUGAGAGCAUCUUUGGAUGCAGAGGCGGCAGCCUUCGGUGGGGCGAUAGCGCCAACGUUCUCAACUAUGACACGCAAAACGCGUGCUCCGUUGAAUGGAGUUUAUCAAG
GGAUCUUCUCGAUCUAACAAAAAAGACAAAUCUGGCACAAAGCUUGAGAGCAUAUACGGAUGCAGAGGCGGCAGCCUUGGGUGGCGCGAUAGCGCCAAUGUUCUCAACUAUGACACGCAAAACGCUUGCUCCGUUGAAUGGAUUUUAUCAUG
GGAUCUUCUCGAUCUAACAAAAAAGACAAAUCUGGCACAAAGCUUGAGAGCAUCUUCGGAUACAGAGAGGCAGCCCUUCGGUGGCGCGAUCGCGCCAACGUUCUCAACUAUGAUACGCAAAACGCGUGCUCUGUUGAAUGGAGUUUAUCAUG
GGAUCUUCUCGAUCUAACAAAAAAGACAAAUCUGGCACAAAGCUUGAGAGCUACUACGGAUGCAGAGGCGGCAGCCUUCGGUGGCGCGAUAGGGCUAACGUUCUGAACUAUGACACGCAAAACGCGUGCUCCGUUGAAUGGAGUUUAUCAUA
GGAUCUUCUCGAUCUAACAAAAAAGACAAAUCUGGCACAAAGCUUGAGAGCAUCUUCGGAUGCAGAGGCGGCAGCCUUCGGUGACGCGAUAGGGCCAACGGUCUCAACUAUGACACGCAAAACGCGUGCUCCGUUGAAUGGAGUUUAUCAUG
GGAUCUUCUCGAUCUAACAAAAAAGACAAAUCUGGCACAAAGCUUGAGAACAUCUUCAGAUGCAGCGGCGGCAGACUUCGGUGGCGUGAUAGCGCCAACGUUCUCAACUAUGACACGCAAAACGCGUGCUCCGUUGAAUGGAGUUUAUCAUG
GGAUCUUCUCGAUCUAACAAAAAAGACAAAUCUGGCACAAAGCUUGAGAGCAUCUUCGGAUGCAGAGGCGGCAGCCUUCGGUCGCGCGAUCGCGCCAACGUUCUCAAUUAUGACACGCAAAACGCGUGCUCCGUUUAAUGGAGUUUAUCAUG
GGAUCUUCUCGAUCUAACAAAAAAGACAAAUCUGGCACAAAGCUUGAGAGCAUCUUCGGAUGCAGAGGCGGCAGCCUUCGGUGGAGCGAUAGCGCCAACGUUCUGAACUAUGUCACGCAAAACGCGUGCUCCGUUGAAUGGAGUUUAUCAUG
GGAUCUUCUCGAUCUAACAAAAAAGACAAAUCUGGCACAAAGCUUGAGAGCAUUUUCGGUUGCAGAGGCGGCAGCCUUCGGUGGAGCGAUAGCGCCAACGUUCUCAACUAUGACACGCAAAACGCGUGCUCCGUUGAAUGGAGUUUAUCAUG
GGAUCUUCUCGAUCUAACAAAAAAGACAAAUCUGACACAAAGCUUGAGAGCAUCUUCGGAUGCAGAGGCGGCAGCCUUCGGUGGCGCGAUAGCGCCAACGUUCUCAACUAUGACACGCAAAACGCGUGCUCCGUUGAAUGGAGGUUAUCAAG
GGAUCUUCUCGAUCUAACAAAAAAGACAAAUCUGGCACAAAGCUUGAGAGCAUCUUCCGAUGCAGAGGCGGCAGCCUUCGGUGGCGCGAUAGCGCCAACGUUCUCAACUAUGACACGCAAAACGUGUGCUCCGUUGAAUGGAGUUUCUCAUG
GGAUCUUCUCGAUCUAACAAAAAAGACAAAUCUGGCACAAAGCUUGAGAGCAUCUUCGGAUGCAGAGGCGGCAGCCUUCGGUGACGCGAUAGCGCCAACGUUCGCAACGAUGACACGCAAAACGCGUGCUCCGUUGAAUUGAGUUUAUCAUG
GGAUCUUCUCGAUCUAACAAAAAAGACAAAUCUGGCACAAAGCUUGAGAGCAUCUUCGGAUGCAGAGGCGGCAGCCUUCGGUGGCGCGAUCGCGCCAACGUUCUCAACUAUGACACGGAAAAAGCGUGCUCCGUUGAAUGGAGUUUAUCAUG
GGAUCUUCUCGAUCUAACAAAAAAGACAAAUCUGGCACAAAGCUUGAGAGCAUCUUCGGAUGCAGAGGCGGCAGCCUUCGGUGGCACGAUAGCGCCAACGUUCUCAACUAUGACACGCACAACGUGUGCUCCGUUGAAUGGACUUUAUCAUG
GGAUCUUCUCGAUCUAACAAAAAAGACAAAUCUGGCACAAAGCUUGAGAGCAUCUUCGGAUGCAGAGGCGGCAGCCUUCGGUGGGGCGAUAGCGCCAACGUUCUCAACUAUGACACGCAAAACGCGUGCUCCGAUAAAUGGAGUUUAUCAUG
GGAUCUUCUCGAUCUAACAAAAAAGACAAAUCUGGCACAAAGCUUGAGAGGAUCUGCGGAUGCAGAGGCAGCAGCGUUCGGUGGGGCGAUAGCGCCAACGUUCUCAACUAUGACACGCAAAACGCGUGCUCCUUUGAAUGGAGUUUAUCAUG
GGAUCUUCUCGAUCUAACAAAAAAGACAAAUCUGGCACCAAGCUUGAGAGCAUCUUCGGAUGCAGAGGCGGCAGCCUUCGGCGGCGCGAUAGCGCCAACGUUCUCAACUAUGACAUGCAAAACGGGUGCUCCAUUGAAUGGAGUUUAUCAUG
GGAUCUUCUCGAUCUAACAAAAAAGACAAAUCUGGCACAAAGCUUGAGAGCAUCUUCGGAUCCAGACGCGGCAGCCUUCGGUGGGGCGAUAGCGCCAACGUUCUCAACUAUGACACGCAAAACGCGUGCUACGUUGAAUGGAGUUUUUCAUG
GGAUCUUCUCGAUCUAACAAAAAAGACAAAUCUGGCACAAAGCUUGCGAGCAUCUUCGGAUGCAGAGGGGGCAGCCGUCGGCGGCGCGAUAGCGCCAACGUUGUCAACUAUGACACGCAAAACGCGUUCGCCGUUGAAUGGAGUUUAUCACG
GGAUCUUCUCGAUCUAACAAAAAAGACAAAUCUGGCACAAAGCUUGAGAGUAUCUUCGGAUGCAGAGGCGGCAGCCUUCGGUGGUGCGAUAGCGCCAACGUUCUCAACUAUGACACGCAAAACGCGUGCUCCGUUGAAGGGUGUUUAUCAUG
GGAUCUUCUCGAUCUAACAAAAAAGACAAAUCUGGCACAAAGCUUGAGAGCAUCUUCGGAUGCAGAGACGGCAGCCUUCGGUGGCGCGAUUGCGCCAACGUUCUCAACUAUGACACGCAAAACGCGUGCUCCGUUGAAUGGAGCUUAUCAUG
GGAUCUUCUCGAUCUAACAAAAAAGACAAAUCUGGCACAAAGCUUGAGAGCAUCUUCGGAUGCAGAGGCGGCAGCCUUCGGUAGCGCGCUAGCGCCAACGUUCUCAACUAUGACACGCAAAACGCGUGCUCCGUUGAAUGGUGUUUAUCAUG
GGAUCUUCUCGAUCUAACAAAAAAGACAAAUCUGACACAAAGCUUGAGAGCAUCUUCGGAUGCAGAGGCGGCAGCCUUCGGUGGCGCGAAAGCGCCAACGUUCUCAACUACGACACGCAAAACGCGUGCUCCGUUGCAUGGAGUUUAUCAUG
GGAUCUUCUCGAUCUAACAAAAAAGACAAAUCUGGCACAAAGCUUGAGAGCAUCUUCGAAUGCAGAGGCGGCAGCCUUCGGUGGAGCGAUAGCGCCAACGUUCUCGACUAUGACACGCAAAACGCUUGCUCCGUUGAAUGGAGUUUAUCAUG

From the RNAGym collection of RNA variant scans (doi:10.1073/pnas.2313332121)
